Data on two molecules can be found in patent US20230212239A1, “INHIBITORS OF CBL AUTOINHIBITION AND RELATED METHODS” (THE HOSPITAL FOR SICK CHILDREN, priority 2020, published 2023).

“Also recorded” adds a separate entry of the source.

One assay deals with T1, CBL TKBD (Homo sapiens, UniProt P22681).
T1 construct: with CBL (47-357) cloned in frame into MCS2 of the same pETDuet-1 vector; made in house
T1 sequence (P22681 47-357): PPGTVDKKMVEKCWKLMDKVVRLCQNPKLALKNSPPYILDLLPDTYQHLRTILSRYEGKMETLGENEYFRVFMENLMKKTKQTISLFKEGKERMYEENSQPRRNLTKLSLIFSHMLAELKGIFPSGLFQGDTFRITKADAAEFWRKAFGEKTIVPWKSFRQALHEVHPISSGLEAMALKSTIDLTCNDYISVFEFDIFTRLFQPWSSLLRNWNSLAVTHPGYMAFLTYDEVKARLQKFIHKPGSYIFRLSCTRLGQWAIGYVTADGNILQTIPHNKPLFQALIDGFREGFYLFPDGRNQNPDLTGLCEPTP
Put plainly: Co-purification of CBL TKBD with Trx-His-SLAP2/SLAP (Duet co-expression, Ni-NTA, SDS-PAGE). The assay is classed as binding. An excerpt: To validate the CBL/SLAP2 binding interface, a series of mutants in a Duet co-expression vector system was generated for co-purification trials. The SLAP2 sequence was preceded by thioredoxin (Trx) and His-tag fusion proteins to allow co-purification of CBL TKBD that was bound to Trx-His-SLAP2 during the initial affinity chromatography purification step. Surface residues deemed to be important to the CBL/SLAP2 interface, but not CBL function or folding, were mutated to disrupt CBL/SLAP2 binding (FIG. 5C and FIG. 6). In our structure, SLAP2 Gly240 locates close to CBL Met269 and Ala270, such that mutation to a bulky Arg residue (G240R) could cause sterical constraints. Similarly, SLAP2 Leu241 is situated in a hydrophobic cleft composed of CBL Ala223, Trp258, and Val263; mutation to Arg (L241R) was predicted to disturb this binding pocket. Mutation of CBL Ala223 to Arg (A223R) would likewise disrupt this pocket, with CBL/SLAP2 double mutant A223R/L241R predicted to drastically disturb binding through sterical constraints and charge repulsion. (For clarity, CBL mutations herein are indicated in italics, SLAP2 in regular font.) Similarly, single or double mutation of CBL Ser226 or SLAP2 Ser244, whose side chain hydroxyl groups are in close proximity to one another, to charged Glu residues (S226E and S244E) was anticipated to interfere with CBL/SLAP2 binding. Finally, given that SLAP2 binds CBL as an α-helix, mutation of Leu245, located in the center of this α-helix, to proline (L245P) was expected to interrupt the helical structure and thus prevent SLAP2 binding. […] However, double mutation of the CBL/SLAP2 interface (A223R/L241R and S226E/S244E; FIG. 5D, lower panel) was not tolerated, even at low salt concentration.
For co-purification of CBL and SLAP2/SLAP, Duet-His-hSLAP2-CBL 29-261 Δ198-229 and 29-254 Δ198-229, Duet-His-Δlinker-hSLAP2-CBL WT and point mutants, and Duet-His-mSLAP-CBL WT and point mutants were overexpressed in E. coli BL-21 as above or TKB1 competent cells (Stratagene) as per manufacturer’s instructions, and cells harvested as above (except 100 mL of LB, overnight at 16-18° C., and 0.35-0.5 mM IPTG induction). Cell pellets were resuspended in either high or low salt (as for high salt except 25 mM HEPEs pH 7.5, 150 mM NaCl) lysis buffer and purified as above on Ni-NTA agarose (Qiagen) with wash buffer (25 mM HEPEs pH 7.5, 150 mM NaCl, 2% glycerol, 20 mM imidazole, 10 mM βME). Bead slurry was mixed with SDS 2X loading buffer (125 mM Tris pH 6.8, 4% SDS, 20% glycerol, 0.715 M βME, bromophenol blue), boiled, and analyzed by 10 or 12.5% SDS-PAGE, stained with Coomassie blue.

The target in assay [1] is T2, CBL TKBD-LHR-RING (2-436), unphosphorylated (Homo sapiens, UniProt P22681).
T2 construct: GST (N, cleaved yes); made in house; host or cells: E. coli BL-21
T2 sequence (P22681 2-436): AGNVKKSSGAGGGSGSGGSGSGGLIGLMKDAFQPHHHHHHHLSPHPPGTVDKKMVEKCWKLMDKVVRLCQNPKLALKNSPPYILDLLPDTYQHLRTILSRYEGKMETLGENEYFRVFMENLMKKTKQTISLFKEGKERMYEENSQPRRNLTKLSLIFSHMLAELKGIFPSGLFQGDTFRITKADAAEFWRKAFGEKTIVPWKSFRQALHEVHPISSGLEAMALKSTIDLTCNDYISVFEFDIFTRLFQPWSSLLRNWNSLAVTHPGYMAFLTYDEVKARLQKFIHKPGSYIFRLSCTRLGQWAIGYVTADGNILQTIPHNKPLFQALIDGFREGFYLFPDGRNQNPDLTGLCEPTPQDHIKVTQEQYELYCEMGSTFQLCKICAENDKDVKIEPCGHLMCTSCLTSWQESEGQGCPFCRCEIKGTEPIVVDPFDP
Put plainly: In vitro ubiquitination assay, anti-ubiquitin immunoblot. The conditions noted are these: added to unphosphorylated CBL; 20 pmol CBL, 60 pmol SLAP2/pSLAP2. It is filed as biochemical. An excerpt:
Given that binding of SLAP2 and the LHR-RING would be mutually exclusive (FIG. 8C), we reasoned that binding of SLAP2 to CBL could displace the LHR-RING, thereby promoting the catalytically competent conformation. To test this hypothesis, an in vitro ubiquitination assay in which E3 ligase activity is detected by a smear at high molecular weight on an anti-ubiquitin (Ub) immunoblot was employed. […] To further compare and quantify CBL ubiquitin ligase activity, a chemiluminescence based assay which measures the total amount of polyubiquitylated products formed in an in vitro reaction was used. In this assay, production of polyubiquitylated proteins increased upon addition of SLAP2 or pSLAP2 to CBL, compared to CBL alone (FIG. 9C and FIG. 10A).
In vitro ubiquitination reactions were prepared with 20 pmol of CBL or pCBL and 60 pmol of hSLAP2 or phosphorylated hSLAP2 (pSLAP2) for both WT and mutants. Reagents were thawed and reactions prepared on ice. CBL and SLAP2 were mixed in PBS (with 5 mM βME, 5 mM caproic acid, 0.5 mM PMSF, and 0.5 mM Na3VO4) at rt for 5-10 min before addition of master mix (42 pmol E1 (UBE1, Boston Biochem or Ubiquitin-Proteasome Biotechnologies), 0.1 µmol E2 (UbcH5b/UBE2D2, Boston Biochem #E2-622), […], and 11.6 µmol ubiquitin (Boston Biochem #U-100H) in reaction buffer (0.2 M Tris pH 7.5, 10 mM MgCl2, 2 mM DTT). Reactions were incubated at 30° C. shaking at 500-700 rpm for 60-110 minutes and terminated by addition of SDS 2X loading buffer and boiling for 5-10 minutes. Equal volumes of each reaction were loaded on 12.5% SDS-PAGE gel, transferred to PVDF membrane, and immunoblotted for ubiquitin as per standard protocols (anti-ubiquitin antibody P4G7, BioLegend #838701, 1:1000; anti-mouse IgG HRP-linked antibody, Cell Signaling Technology #7076, 1:10000; Western Lightning Plus ECL, Perkin Elmer).
On the technique in general: In western blotting, separated proteins are transferred to a membrane and probed.

B1: Trx-His(6)-Δlinker-hSLAP2 (human SLAP2 29-261) (other)
chain: EAERSKATAVALGSFPAGGPAELSLRLGEPLTIVSEDGDWWTVLSEVSGREYNIPSVHVAKVSHGWLYEGLSREKAEELLLLPGNPGGAFLIRESQTRRGSYSLSVRLSRPASWDRIRHYRIHCLDNGWLYISPRLTFPSLQALVDHYSELADDICCLLKEPCVLQRAGPLPGKDIPLPVTVQRTPLNWKELDSSLLFSEAATGEESLLSEGLRESLSFYISLNDEAVSLDDA
notes: also called Trx-His-SLAP2; SLAP2 WT; not shown: N-terminal thioredoxin (Trx)-His(6)-TEV-site tag and linker of the modified pET32a (Δlinker version)
Consider B1, for which, in the assay with CBL TKBD (high salt conditions (0.5 M NaCl)), the “CBL TKBD co-purification” value is on record as “co-purified”. In addition, the “CBL ubiquitination activity (anti-Ub immunoblot)” value in assay [1] is given as “stimulated CBL ubiquitination activity”.

B2: pSLAP2: tyrosine phosphorylated SLAP2 expressed in TKB1 cells (protein, UniProt Q9H6Q3 2-261, looked up)
Src-like-adapter 2: GSLPSRRKSLPSPSLSSSVQGQGPVTMEAERSKATAVALGSFPAGGPAELSLRLGEPLTIVSEDGDWWTVLSEVSGREYNIPSVHVAKVSHGWLYEGLSREKAEELLLLPGNPGGAFLIRESQTRRGSYSLSVRLSRPASWDRIRHYRIHCLDNGWLYISPRLTFPSLQALVDHYSELADDICCLLKEPCVLQRAGPLPGKDIPLPVTVQRTPLNWKELDSSLLFSEAATGEESLLSEGLRESLSFYISLNDEAVSLDDA
modifications: tyrosine phosphorylated
notes: tyrosine phosphorylated SLAP2 expressed in TKB1 cells
Regarding B2, in the assay with CBL TKBD (conditions where SLAP2 was tyrosine phosphorylated (TKB1), low salt), the “CBL TKBD co-purification” value is given as “co-purified”. Also, in assay [1], the “CBL ubiquitination activity (anti-Ub immunoblot)” value is given as “stimulated CBL ubiquitination activity; also recorded: promote CBL ubiquitination activity to a greater extent than the addition of SLAP2”.
